doi:10.1101/2023.10.08.561411, “Semi-synthetic nanobody-ligand conjugates exhibit tunable signaling properties and enhanced transcriptional outputs at neurokinin receptor-1” (bioRxiv, 2023)
Blank lines part the entries; values can stand above or below the molecule they belong to. Ends that are not written are not given here.

What was measured:
[1] = biological target: epitope-tagged neurokinin-1 receptor (NK1R) with three epitope tags (alfa, 6e, BC2) inserted into the extracellular N-terminus (UniProt P25103)
[2] = biological target: epitope-tagged neurokinin-1 receptor (NK1R) with three epitope tags (alfa, 6e, BC2) inserted into the extracellular N-terminus (UniProt P25103); remark: listed apart in the source
[3] = biological target: epitope-tagged neurokinin-1 receptor (NK1R) with three epitope tags (alfa, 6e, BC2) inserted into the extracellular N-terminus (UniProt P25103); remark: listed apart in the source
[4] = biological target: epitope-tagged neurokinin-1 receptor (NK1R) with three epitope tags (alfa, 6e, BC2) inserted into the extracellular N-terminus (UniProt P25103); remark: listed apart in the source
[5] = biological target: T1, neurokinin-1 receptor wild-type, lacking epitope tags (Homo sapiens, UniProt P25103); experiment: flow cytometry on cells; live HEK293 cells expressing the receptor, on ice 20 min in PBS with 2% BSA with biotin-functionalized nanobodies (0.1 pM – 1 μM); detected with APC-streptavidin; median fluorescence intensity; details: one partner purified
T1 construct: also called NK1R WT; NK1R wild-type; source: HEK293, stably transfected clonal line, on live cells
T1 sequence (P25103 whole entry): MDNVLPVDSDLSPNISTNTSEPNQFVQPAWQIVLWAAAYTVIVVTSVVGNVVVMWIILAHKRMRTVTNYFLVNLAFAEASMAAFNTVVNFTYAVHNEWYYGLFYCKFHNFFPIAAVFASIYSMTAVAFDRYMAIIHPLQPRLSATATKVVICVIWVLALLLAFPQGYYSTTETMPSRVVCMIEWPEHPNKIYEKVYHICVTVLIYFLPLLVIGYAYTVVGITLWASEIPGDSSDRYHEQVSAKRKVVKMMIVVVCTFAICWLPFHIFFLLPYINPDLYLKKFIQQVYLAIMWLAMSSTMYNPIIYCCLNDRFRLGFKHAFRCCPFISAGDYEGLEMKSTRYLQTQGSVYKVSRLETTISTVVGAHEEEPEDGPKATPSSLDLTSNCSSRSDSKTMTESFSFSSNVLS

Molecule: Nb_(alfa)-NKA conjugate
Gq activation (TRUPATH BRET), full efficacy; reduction in potency (EC50) relative to the comparator peptide [1]: < 6 fold | Gs-mediated transcription (luciferase reporter, 35 nM, 17 hours), fold against NKA [2]: > 5 fold | Gq-mediated transcriptional output (luciferase reporter, 35 nM, 17 hours), fold against G3NKA [3]: > 2 fold

Molecule: SP_(6–11), truncated version of Substance P (peptide)
signaling through the Gq pathway (TRUPATH BRET), EC50 [4]: 27.5 nM

Molecule: Nb_(alfa)-SP_(6–11) conjugate
Gq activation (TRUPATH BRET), full efficacy; reduction in potency (EC50) relative to the comparator peptide G3SP (6–11) [1]: > 60 fold | Gq activation (TRUPATH BRET); difference in EC50 relative to SP (6–11) [1]: < 4 fold

B1: Nb_(alfa), biotin-labeled (VHH)
VHH: EVQLQESGGGLVQPGGSLRLSCTASGVTISALNAMAMGWYRQAPGERRVMVAAVSERGNAMYRESVQGRFTVTRDFTNKMVSLQMDNLKPEDTAVYYCHVLEDRVDSFHDYWGQGTQVTVSS
notes: sortase A recognition motif at the C-terminus (LPETGG in the methods); if by sortagging, the His tag would be lost; source: E. coli BL21(DE3), purified (nickel-NTA, size exclusion chromatography)
binding result [5]: no binding (tested: 1 μM)

B2: Nb6e, biotin-labeled (VHH)
VHH: QVQLQESGGGLVQPGGSLRLSCAASGFVFENSAMAWYRQAPGKERELIAVIGTTFIKLAESVKGRFTISRDNAKSTVYLQMNNLKPEDTAVYYCSKSGAYWGQGTQVTVSS
notes: as for B1
binding result [5]: no binding (tested: 1 μM)

Molecule: GGGQFFGLM-NH2 [G3SP_(6–11), SP_(6–11) with an N-terminal triglycine extension]
signaling through the Gq pathway (TRUPATH BRET), EC50 [4]: 0.3 nM

Further lines, results first:

Gq activation (TRUPATH BRET), full efficacy; reduction in potency (EC50) relative to the comparator peptide [1]: < 6 fold
Molecule: NbGFP-NKA conjugate (negative control)

Gq activation (TRUPATH BRET), full efficacy; reduction in potency (EC50) relative to the comparator peptide G3SP (6–11) [1]: > 60 fold | Gq activation (TRUPATH BRET); difference in EC50 relative to SP (6–11) [1]: < 4 fold
Molecule: NbGFP-SP_(6–11) conjugate (negative control)

binding result [5]: no binding (tested: 1 μM)
B3: NbBC2, biotin-labeled (VHH)
VHH: QVQLVESGGGLVQPGGSLTLSCTASGFTLDHYDIGWFRQAPGKEREGVSCINNSDDDTYYADSVKGRFTIFMNNAKDTVYLQMNSLKPEDTAIYYCAEARGCKRGRYEYDFWGQGTQVTVSS
notes: as for B1

binding result [5]: no binding (tested: 1 μM)
B4: NbGFP, biotin-labeled (negative control nanobody that targets GFP) (VHH)
VHH: QVQLQESGGALVQPGGSLRLSCAASGFPVNRYSMRWYRQAPGKEREWVAGMSSAGDRSSYEDSVKGRFTISRDDARNTVYLQMNSLKPEDTAVYYCNVNVGFEYWGQGTQVTVSS
notes: nanobody NbGFP against GFP; sortase A recognition motif at the C-terminus (LPETGG in the methods); if by sortagging, the His tag would be lost; source: E. coli BL21(DE3), purified (nickel-NTA, size exclusion chromatography)
